Measured values: patent publication US20110059076A1, “HUMAN SERUM ALBUMIN LINKERS AND CONJUGATES THEREOF” (priority 2008, published 2011)
Values joined by “and” are separate entries in the source; they are usually repeats but may differ in a detail not shown here. Identical values can stand only once. “Also recorded” adds a separate entry of the source.

How the values were obtained:
[1] = tested on: ErbB3 phosphorylation in BT-474-M3 cells; test: HRG-induced ErbB3 phosphorylation ELISA in BT-474-M3; type: cell-based, human; details: BT-474-M3, dose titration 24 hours, 5 nM HRG 1β EGF domain 10 minutes
Procedure: Except as noted, ELISA reagents for total and phospho-ErbB3 ELISAs are purchased from R&D Systems as DUOSET kits. 96-well NUNC MAXISORB plates are coated with 50 μl of an antibody and incubated overnight at room temperature. Next morning, plates are washed 3 times with 1000 μl/well in a BIOTEK plate washer with Dulbecco's phosphate buffered saline without calcium or magnesium (PBS) with added Tween detergent (PBST) (0.05% Tween-20). […] The plates are washed 3 times with 1000 μl/well in the BIOTEK plate washer with PBST. Cells are grown at 37° C. and 5% carbon dioxide, washed with cold PBS, then harvested with mammalian protein extract (MPER) lysis buffer (Pierce, 78505) to which 150 mM NaCl, 5 mM sodium pyrophosphate, 10 uM bpV (phen), 50uM phenylarsine, 1 mM sodium orthovanadate, and protease inhibitor cocktail (Sigma, P2714) is added. 50 μL of cell lysates and standards diluted in 50% Lysis buffer and 1% BSA are used in duplicates for further processing. Samples are incubated for 2hrs at 4° C. on a plate shaker and washed as before. About 50 μl of a detection antibody diluted in 2% BSA, PBST is added and incubated for about 1-2 hrs at room temperature. […] About 50 μL of SUPERSIGNAL ELISA Pico (Thermo Scientific) substrate is added and the plate is read using a FUSION plate reader. […]

[2] = tested on: AKT phosphorylation in BT-474-M3 cells; test: HRG-induced AKT phosphorylation ELISA in BT-474-M3; type: cell-based, human; details: BT-474-M3, dose titration 24 hours, 5 nM HRG 1β EGF domain 10 minutes
[3] = tested on: signaling proteins in BT474 breast cancer cells; test: Western blot of signaling proteins in BT474 cells; type: cell-based; details: BT474, dose range 24 hours, heregulin stimulation
Procedure: Levels of pErbB2, pErbB3, pErk and pAKT and their corresponding total protein levels are determined on cell lysates by Western blot analysis.

[4] = biological target: T1, ErbB2-associated complexes in BT474 breast cancer cells (Homo sapiens, UniProt P04626+P21860); test: immunoprecipitation-Western blot of ErbB2-associated complexes; type: cell-based; details: BT474, dose range 24 hours, heregulin stimulation
T1 construct: endogenous in cells; host or cells: BT474 breast cancer cells
From the text: ErbB2-associated complexes are isolated from cell lysates using an anti-ErbB2 antibody followed by Western blot analysis to detect pErbB2 and pErbB3 and the corresponding total protein levels.

[5] = tested on: human BT-474-M3 xenografts; test: dose response in BT-474-M3 breast cancer xenograft model; type: in vivo, nude mice; details: 0.3, 1, 3, 10, 30 or 90 mg/kg i.p. every 3 days, 12 doses
Procedure: All doses are administered interperitoneally (i.p.). Tumor size is measured twice a week and the corresponding tumor volume is calculated.

[6] = tested on: NCI-N87 (human gastric carcinoma) xenograft; test: NCI-N87 xenograft model; type: in vivo, mice; details: NCI-N87, 30 mg/kg every 3 days
From the text: Calu-3 (human lung adenocarcinoma; FIG. 17A), SKOV-3 (human ovarian adenocarcinoma; FIG. 17B), NCI-N87 (human gastric carcinoma; FIG. 17C), ACHN (human kidney adenocarcinoma; FIG. 17D), and MDA-MB-361 (human breast adenocarcinoma; FIG. 17E) xenograft model are shown.

[7] = tested on: wild type ADRr xenografts; test: wild type ADRr breast cancer xenograft model; type: in vivo, nude mice; details: 30 mg/kg every 3 days
[8] = tested on: ADRr-E2 xenografts; test: ADRr-E2 (ErbB2 over-expressing) xenograft model; type: in vivo, nude mice; details: ADRr-E2, 30 mg/kg every 3 days
From the text: ErbB2 is over-expressed in ADRr breast cancer cells using a retroviral expression system. Transfected cells expressing high levels of ErbB2 (ADRr-E2) are selected using FACS and subsequently injected subcutaneously into nude mice to establish xenograft tumors.

[9] = tested on: ErbB3 phosphorylation in 9 tumor cell lines; test: pErbB3 inhibition ELISA across 9 tumor cell lines versus ErbB2 expression; type: cell-based; details: 5×10^4 to 2.4×10^6 ErbB2 receptors/cell
[10] = tested on: 10 tumor xenograft models; test: activity in 10 tumor xenograft models versus ErbB2 expression; type: in vivo; details: low to high ErbB2
[11] = tested on: p27^kip1 in BT474-M3 breast tumor xenografts; test: p27kip1 staining of xenograft tumors; type: in vivo; details: 30 mg/kg every 3 days, 4 doses
[12] = single dose pharmacokinetics in nu/nu mice; type: in vivo; details: for AUC / Clearance / T½β: Mouse (single dose)
Procedure: Blood is collected pre-dose and at 0.5, 4, 8, 24, 48, 72, and 120 hours post dose. Three mice are used for each time point. […] The HSA ELISA utilizes a polyclonal-anti HSA capture antibody and a HRP-conjugated polyclonal anti-HSA detection antibody.

[13] = tested on: BT-474-M3 xenograft; test: combination with trastuzumab in BT-474-M3 xenograft model; type: in vivo, athymic nude mice (nu/nu); details: single agent
Procedure: Mice receive a subcutaneous estrogen-releasing implant in the opposite flank (0.72 mg pellet, 60 day, slow-release, Innovative Research of America, Sarasota, Fla.) 24 h prior to the injection of 20×10^6 human BT-474-M3cells in PBS. Dosing is initiated when tumor growth is established (tumor volumes of approximately 400 mm^3). Tumors are measured twice a week using digital calipers. Tumor volume is calculated using the formula: π/6×(W^2×L), where W is the short diameter and L is the long diameter.

[14] = biological target: ErbB3 (Homo sapiens, UniProt P04626+P21860); test: inhibition of ligand-induced phosphorylation of ErbB3 (general statement); type: cell-based

B2B3-1: bispecific scFv antibody fusion: anti-ErbB3 scFv H3 and anti-ErbB2 scFv B1D2 joined by a modified human serum albumin (HSA) linker
inhibition of HRG induced ErbB3 phosphorylation [1]: inhibits | inhibition of HRG induced AKT phosphorylation [2]: inhibits | levels of pErbB2 [3]: reduced in a dose-dependent manner | levels of pErbB3 [3]: reduced in a dose-dependent manner | ErbB3 and phospho-ErbB3 precipitated by the anti-ErbB2 antibody [4]: crosslinks ErbB2 to ErbB3 | complete regressions [5]: Complete regressions were observed in each of the B2B3-1 treatment groups except mice treated with the lowest dose | tumor size compared to the control group [5]: significant reduction | tumor size reduction [6]: efficacious | xenograft response [7]: no response; also recorded: non-responder | xenograft response [8]: responded; also recorded: responder | % pErbB3 inhibition in relation to ErbB2 expression levels [9]: correlates positively | xenograft response in relation to ErbB2 expression levels [10]: correlates positively | nuclear staining for p27^kip1 compared to HSA control tumors [11]: Increased nuclear staining; also recorded: translocation of p27^kip1 to the nucleus | AUC ([12]; 5 mg/kg IV): 1.58E+03 hr-μg/ml | Clearance ([12]; 5 mg/kg IV): 3.19 mL/h/kg | T½β ([12]; 5 mg/kg IV, 5 mg/kg): 17 h and 16.9 h | AUC ([12]; 15 mg/kg IV): 6.10E+03 hr-μg/ml | Clearance ([12]; 15 mg/kg IV): 2.47 mL/h/kg | T½β ([12]; 15 mg/kg IV, 15 mg/kg): 16 h and 16.2 h | AUC ([12]; 30 mg/kg IV): 1.18E+04 hr-μg/ml | Clearance ([12]; 30 mg/kg IV): 2.54 mL/h/kg | T½β ([12]; 30 mg/kg IV, 30 mg/kg): 23 h and 22.6 h | AUC ([12]; 45 mg/kg IV): 1.84E+04 hr-μg/ml | Clearance ([12]; 45 mg/kg IV): 2.46 mL/h/kg | T½β ([12]; 45 mg/kg IV, 45 mg/kg): 18 h and 17.5 h | dose-exposure relationship ([12]; nu/nu mice, 5, 15, 30 and 45 mg/kg bolus doses): linear increase in overall exposure | mice with completely regressed tumors ([13]; B2B3-1 3 mg/kg q3d): 0 out of 10 | mice with completely regressed tumors ([13]; B2B3-1 10 mg/kg q3d): 0 out of 10 | potency of inhibition of ligand-induced phosphorylation of ErbB3 [14]: sub-nanomolar
